This data set deals with T1, PBX1 (residues 233-319) (mouse/human, UniProt P40424 P40424:233-319).
T1 sequence: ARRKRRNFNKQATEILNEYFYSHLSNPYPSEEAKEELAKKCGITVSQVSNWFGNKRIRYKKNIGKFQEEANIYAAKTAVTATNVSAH
The experiment in a line: EMSA; binary PBX1/DNA complex; inhibited by compound 31, not by compound 15. The conditions noted are these: label: 32P (Klenow fill-in with alpha-32P-dCTP); annealed with overhangs extended by Klenow.

B1: HOXPBX-CT probe (dsDNA)
DNA 1: CTCTCCTTTTGATTGATTAA
DNA 2: AGAGCTTAATCAATCAAAAGG
For the molecule B1, the binding result was “binds”.

These data come from patent US20050153366, “Protein-protein interaction antagonist screening libraries based upon 1,4-disubstituted naphthalenes and related scaffolds” (published 2005).
